Results taken from US20120129766A1 (IRM, published 2012).

T1: human β-klotho (human, UniProt Q86Z14 1-1044)
T1 sequence (looked up): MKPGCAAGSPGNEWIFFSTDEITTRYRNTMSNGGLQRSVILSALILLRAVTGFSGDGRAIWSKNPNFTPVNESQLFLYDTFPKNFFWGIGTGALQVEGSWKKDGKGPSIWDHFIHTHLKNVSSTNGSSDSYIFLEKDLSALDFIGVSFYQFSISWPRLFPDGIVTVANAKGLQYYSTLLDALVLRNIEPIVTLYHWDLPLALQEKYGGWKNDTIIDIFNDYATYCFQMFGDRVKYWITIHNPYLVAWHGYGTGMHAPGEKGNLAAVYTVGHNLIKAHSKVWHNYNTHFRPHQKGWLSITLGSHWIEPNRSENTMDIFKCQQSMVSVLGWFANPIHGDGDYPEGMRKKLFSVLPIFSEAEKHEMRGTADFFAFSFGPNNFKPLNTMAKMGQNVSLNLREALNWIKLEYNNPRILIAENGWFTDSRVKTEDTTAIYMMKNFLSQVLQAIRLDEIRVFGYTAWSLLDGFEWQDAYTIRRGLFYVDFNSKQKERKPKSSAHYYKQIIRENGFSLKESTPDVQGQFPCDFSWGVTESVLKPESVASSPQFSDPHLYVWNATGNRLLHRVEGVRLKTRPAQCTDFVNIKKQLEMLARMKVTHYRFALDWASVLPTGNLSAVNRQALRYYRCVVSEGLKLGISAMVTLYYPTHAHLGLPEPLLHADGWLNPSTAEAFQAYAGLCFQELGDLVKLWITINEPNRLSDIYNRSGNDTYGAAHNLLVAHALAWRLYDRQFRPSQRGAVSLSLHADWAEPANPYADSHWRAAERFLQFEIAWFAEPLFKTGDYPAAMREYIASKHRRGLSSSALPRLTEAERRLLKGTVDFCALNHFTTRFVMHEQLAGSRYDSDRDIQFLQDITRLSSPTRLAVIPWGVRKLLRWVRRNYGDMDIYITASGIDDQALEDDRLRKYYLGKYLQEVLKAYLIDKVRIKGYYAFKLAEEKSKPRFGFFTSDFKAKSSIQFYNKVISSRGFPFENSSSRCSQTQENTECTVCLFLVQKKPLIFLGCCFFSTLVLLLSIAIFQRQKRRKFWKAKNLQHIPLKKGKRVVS


Target: T1, human β-klotho
Test: cell-based or functional assay

EC50 (nM), pERK In Cell Western	Fold-WT (EC50 of variant / EC50 of FGF21-WT)	Binder
34 nM	13 fold	hFGF21(33-209)-V55 (ligand) DSSPLLQFGGQVRQRYLYTDDAQQTEAHLEIREDGTAGGAAHQSPESLLELKALKPGVIQILGVKTSRFLCQKPDGALYGSLHFDPEACSFRELLLENGYNVYQSEAHGLPLHLPGNRSPHRDPASQGPARFLPLPGLPPAPPEPPGILAPQPPDVGSSDPLAMVGPSQGRSPSYAS
2.2 nM	0.4 fold	hFGF21(33-209)-V79 (ligand) DSSPLLQFGGQVRQRYLYTDDAQQTEAHLEIREDGTVGGAAHQSPESLLELKALKPGVIQILGVKTSRFLCQKPDGALYGSLHFDPEACSFRELLLEDGYNVYQSEAHGLPLHLPGNRSPHCDPAPQGPARFLPLPGLPPALPEPPGILAPQPPDVGSSDPLAMVGPSQARSPSYAS
14 nM	5 fold	hFGF21(33-209)-V8 (ligand) DSSPLLQFGGQVRQRYLYTDDAQETEAHLEIREDGTVGGAAHQSPESLLQLKALKPGVIQILGVQTSRFLCQKPDGALYGSLHFDPEACSFRELLLENGYNVYQSETHGLPLHLPGNKSPHRDPASQGPARFLPLPGLPPALPEPPGILAPQPPDVGSSDPLAMVGPSQARSPSYAS
1.5 nM	2.7 fold	hFGF21(33-209)-V82 (ligand) DSSPLLQFGGQVRQRYLYTDDAQQTEAHLEIREDGTVGGAADQSPESLLELKALKPGVIQILGVKTSRFLCQKPDGTLYGSLHFDPEACSFRELLLEDGYNVYQSEAHGLPLHLPGNRSPHCDPASQGPARFLPLPGLPPALPEPPGILAPQPPDVGSSDPLAMVGPSQGRSPSYAS
2.2 nM	0.4 fold	hFGF21(33-209)-V80 (ligand) DSSPLLQFGGQVRQRYLYTDDAQQTEAHLEIREDGTVGGAADQSPESLLELKALKPGVIQILGVKTSRFLCQKPDGTLYGSLHFDPEACSFRELLLEDGYNVYQSEAHGLPLHLPGNRSPHCDPAPQGPARFLPLPGLPPALPEPPGILAPQPPDVGSSDPLAMVGPSQARSPSYAS
3.4 nM	0.47 fold	hFGF21(33-209)-V76 (ligand) DSSPLLQFGGQVRQRYLYTDDAQETEAHLEIREDGTVGGAAHQSPESLLELKALKPGVIQILGVKTSRFLCQKPDGALYGSLHFDPEACSFRELLLEDGYNVYQSEAHGLPLHLPGNRSPHCDPAPQGPARFLPLPGLPPALPEPPGILAPQPPDVGSSDPLAMVGPSQGRSPSYAS
5.8 nM	1.7 fold	hFGF21(33-209)-V73 (ligand) DSSPLLQFGGQVRQRYLYTDDAQETEAHLEIREDGTVGGAAHQSPESLLELKALKPGVIQILGVKTSRFLCQKPDGALYGSLHFDPEACSFRELLLEEGYNVYQSEAHGLPLHLPGNRSPHRDPAPQGPARFLPLPGLPPALPEPPGILAPQPPDVGSSDPLAMVGPSQGRSPSYAS
37 nM	14 fold	hFGF21(33-209)-V56 (ligand) DSSPLLQFGGQVRQRYLYTDDAQQTEAHLEIREDGTVGGAAHQSPESLLQLKALKPGVIQILGVKASRFLCQKPDGALYGSLHFDPEACSFRELLLENGYNVYQSETHGLPLHLPGNKSPHRDPASQGPARFLPLPGLPPAPPEPPGILAPQPPDVGSSDPLAMVGPSQARSPSYAS
2.9 nM	0.8 fold	hFGF21(33-209)-V64 (ligand) DSSPLLQFGGQVRQRYLYTDDACQTEAHLEIREDGTVGGAADQSPESLLQLKALKPGVIQILGVKTSRFLCQRPDGTLYGSLHFDPEACSFRELLLENGYNVYQSETHGLPLHLPCNRSPHRDPASRGPARFLPLPGLPPAPPEPPGILAPQPPDVGSSDPLAMVGPSQARSPSYAS
22 nM	6.3 fold	hFGF21(33-209)-V61 (ligand) DSSPLLQFGGQVRQRYLYTDDACQTEAHLEIREDGTAGGAAHQSPESLLELKALKPGVIQILGVKTSRFLCQRPDGALYGSLHFDPEACSFRELLLENGYNVYQSEAHGLPLHLPCNRSPHRDPASRGPARFLPLPGLPPAPPEPPGILAPQPPDVGSSDPLAMVGPSQGRSPSYAS
13 nM	3.7 fold	hFGF21(33-209)-V63 (ligand) DSSPLLQFGGQVRQRYLYTDDACQTEAHLEIREDGTVGGAAHQSPESLLQLKALKPGVIQILGVKTSRFLCQRPDGALYGSLHFDPEACSFRELLLENGYNVYQSETHGLPLHLPCNRSPHRDPASRGPARFLPLPGLPPAPPEPPGILAPQPPDVGSSDPLAMVGPSQARSPSYAS
24 nM	6.8 fold	hFGF21(33-209)-V62 (ligand) DSSPLLQFGGQVRQRYLYTDDACQTEAHLEIREDGTVGGAAHQSPESLLQLKALKPGVIQILGVKTSRFLCQRPDGALYGSLHFDPEACSFRELLLENGYNVYQSETHGLPLHLPCNKSPHRDPASQGPARFLPLPGLPPAPPEPPGILAPQPPDVGSSDPLAMVGPSQARSPSYAS
11 nM	2.1 fold	hFGF21(33-209)-V81 (ligand) DSSPLLQFGGQVRQRYLYTDDAQQTEAHLEIREDGTVGGAAHQSPESLLELKALKPGVIQILGVKTSRFLCQKPDGALYGSLHFDPEACSFRELLLEDGYNVYQSEAHGLPLHLPGNRSPHCDPASQGPARFLPLPGLPPALPEPPGILAPQPPDVGSSDPLAMVGPSQGRSPSYAS
13 nM	2.4 fold	hFGF21(33-209)-V9 (ligand) DSSPLLQFGGQVRQRYLYTDDDQQTEAHLEIREDGTVGGAAHQSPESLLQLKALKPGVIQILGVKASRFLCQKPDGALYGSLHFDPEACSFRELLLENGYNVYQSETHGLPLHLPGNKSPHRDPASQGPARFLPLPGLPPALPEPPGILAPQPPDVGSSDPLAMVGPSQARSPSYAS
3.6 nM	2.6 fold	hFGF21(33-209)-V58 (ligand) DSSPLLQFGGQVRQRYLYTDDAQQTEAHLEIREDGTVGGAAHQSPESLLQLKALKPGVIQILGVKTSRFLCQRPDGTLYGSLHFDPEACSFRELLLENGYNVYQSETHGLPLHLPGNRSPHRDPASQGPARFLPLPGLPPAPPEPPGILAPQPPDVGSSDPLAMVGPSQARSPSYAS
7.6 nM	2.2 fold	hFGF21(33-209)-V60 (ligand) DSSPLLQFGGQVRQRYLYTDDACQTEAHLEIREDGTVGGAAHQSPESLLELKALKPGVIQILGVKTSRFLCQRPDGTLYGSLHFDPEACSFRELLLENGYNVYQSEAHGLPLHLPCNRSPHRDPASRGPARFLPLPGLPPAPPEPPGILAPQPPDVGSSDPLAMVGPSQGRSPSYAS
6.5 nM	1.6 fold	hFGF21(33-209)-V59 (ligand) DSSPLLQFGGQVRQRYLYTDDACQTEAHLEIREDGTVGGAAHQSPESLLELKALKPGVIQILGVKTSRFLCQRPDGALYGSLHFDPEACSFRELLLENGYNVYQSEAHGLPLHLPCNRSPHRDPASQGPARFLPLPGLPPAPPEPPGILAPQPPDVGSSDPLAMVGPSQGRSPSYAS
22 nM	5.4 fold	hFGF21(33-209)-V57 (ligand) DSSPLLQFGGQVRQRYLYTDDAQQTEAHLEIREDGTVGGAAHQSPESLLQLKALKPGVIQILGVKASRFLCQRPDGALYGSLHFDPEACSFRELLLENGYNVYQSETHGLPLHLPGNRSPHRDPASQGPARFLPLPGLPPAPPEPPGILAPQPPDVGSSDPLAMVGPSQARSPSYAS
191 nM	66 fold	hFGF21(33-209)-V73-N-40 kDa bPEG-AL (ligand, 40 kDa branched PEG (aldehyde reagent) on the N-terminal amine) DSSPLLQFGGQVRQRYLYTDDAQETEAHLEIREDGTVGGAAHQSPESLLELKALKPGVIQILGVKTSRFLCQKPDGALYGSLHFDPEACSFRELLLEEGYNVYQSEAHGLPLHLPGNRSPHRDPAPQGPARFLPLPGLPPALPEPPGILAPQPPDVGSSDPLAMVGPSQGRSPSYAS
8.3 nM	2.4 fold	hFGF21(33-209)-V76-154C-40 kDa-bPEG-MA (ligand, 40 kDa branched maleimido-PEG on Cys 154 (numbered on SEQ ID NO:1)) DSSPLLQFGGQVRQRYLYTDDAQETEAHLEIREDGTVGGAAHQSPESLLELKALKPGVIQILGVKTSRFLCQKPDGALYGSLHFDPEACSFRELLLEDGYNVYQSEAHGLPLHLPGNRSPHCDPAPQGPARFLPLPGLPPALPEPPGILAPQPPDVGSSDPLAMVGPSQGRSPSYAS
